Literature values as cited in paper PMC9987997.

How the values were obtained:
[1] = biological target: Scribble PDZ4 (Homo sapiens) (UniProt Q14160); test: ITC
[2] = biological target: Scribble PDZ1 (Homo sapiens) (UniProt Q14160); test: ITC

## NS1 (ESEV PBM) PBM (from UniProt Q8QPI8)
[1]
  Kd: 12.2 µM
[2]
  Kd: 21.4 µM
